Results from US20180155407A1 (Sanofi, published 2018).
Numbered stars: 1 amine (or outer) side, 2 acyl side, 3 side chain; on linkers, the order of the positions; unused ones are H or OH. Square brackets hold non-standard residues; d marks the D form. Side chains are listed from the residue outwards. Ends that are not written are not given here. * marks the point of attachment. γGlu = O=C(O)[C@H](CCC(=O)[*:2])N[*:1]; Palmitoyl = CCCCCCCCCCCCCCCC(=O)*; gAAA = not defined here; AEEA = NCCOCCOCC(=O)O; Aib = CC(C)(N)C(=O)O

T1: human GIP receptor (human, UniProt P48546 22-466)
T1 sequence (looked up): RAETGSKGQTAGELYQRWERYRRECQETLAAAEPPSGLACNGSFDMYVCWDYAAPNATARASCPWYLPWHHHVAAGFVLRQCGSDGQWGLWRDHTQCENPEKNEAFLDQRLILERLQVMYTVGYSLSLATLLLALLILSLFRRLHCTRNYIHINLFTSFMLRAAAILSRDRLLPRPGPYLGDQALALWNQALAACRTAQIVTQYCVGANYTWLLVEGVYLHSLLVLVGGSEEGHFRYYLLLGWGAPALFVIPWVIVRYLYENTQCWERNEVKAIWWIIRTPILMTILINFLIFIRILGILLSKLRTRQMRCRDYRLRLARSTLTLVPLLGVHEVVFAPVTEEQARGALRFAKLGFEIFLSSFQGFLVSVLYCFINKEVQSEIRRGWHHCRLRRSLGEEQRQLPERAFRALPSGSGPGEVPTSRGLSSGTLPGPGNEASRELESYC

B1: SEQ ID NO: 7 (peptide)
peptide: H[Aib]QGTFTSDLSKLK([γGlu-γGlu-Palmitoyl])EKQRQ[Aib]EFIEWLKA[dA]GPPS[Aib]KPPPK-NH2
modifications: N-terminus assumed
SMILES: CCCCCCCCCCCCCCCC(=O)N[C@@H](CCC(=O)N[C@@H](CCC(=O)NCCCC[C@H](NC(=O)[C@H](CC(C)C)NC(=O)[C@H](CCCCN)NC(=O)[C@H](CO)NC(=O)[C@H](CC(C)C)NC(=O)[C@H](CC(=O)O)NC(=O)[C@H](CO)NC(=O)[C@@H](NC(=O)[C@H](Cc1ccccc1)NC(=O)[C@@H](NC(=O)CNC(=O)[C@H](CCC(N)=O)NC(=O)C(C)(C)NC(=O)[C@@H](N)Cc1c[nH]cn1)[C@@H](C)O)[C@@H](C)O)C(=O)N[C@@H](CCC(=O)O)C(=O)N[C@@H](CCCCN)C(=O)N[C@@H](CCC(N)=O)C(=O)N[C@@H](CCCNC(=N)N)C(=O)N[C@@H](CCC(N)=O)C(=O)NC(C)(C)C(=O)N[C@@H](CCC(=O)O)C(=O)N[C@@H](Cc1ccccc1)C(=O)N[C@H](C(=O)N[C@@H](CCC(=O)O)C(=O)N[C@@H](Cc1c[nH]c2ccccc12)C(=O)N[C@@H](CC(C)C)C(=O)N[C@@H](CCCCN)C(=O)N[C@@H](C)C(=O)N[C@H](C)C(=O)NCC(=O)N1CCC[C@H]1C(=O)N1CCC[C@H]1C(=O)N[C@@H](CO)C(=O)NC(C)(C)C(=O)N[C@@H](CCCCN)C(=O)N1CCC[C@H]1C(=O)N1CCC[C@H]1C(=O)N1CCC[C@H]1C(=O)N[C@@H](CCCCN)C(N)=O)[C@@H](C)CC)C(=O)O)C(=O)O
B2: SEQ ID NO: 19 (peptide)
peptide: H[Aib]QGTFTSDLSKLK([γGlu-γGlu-AEEA-Palmitoyl])EEQRQ[Aib]EFIEWLKA[dA]GHPS[Aib]KPPPK-NH2
modifications: N-terminus assumed
SMILES: CCCCCCCCCCCCCCCC(=O)NCCOCCOCC(=O)N[C@@H](CCC(=O)N[C@@H](CCC(=O)NCCCC[C@H](NC(=O)[C@H](CC(C)C)NC(=O)[C@H](CCCCN)NC(=O)[C@H](CO)NC(=O)[C@H](CC(C)C)NC(=O)[C@H](CC(=O)O)NC(=O)[C@H](CO)NC(=O)[C@@H](NC(=O)[C@H](Cc1ccccc1)NC(=O)[C@@H](NC(=O)CNC(=O)[C@H](CCC(N)=O)NC(=O)C(C)(C)NC(=O)[C@@H](N)Cc1c[nH]cn1)[C@@H](C)O)[C@@H](C)O)C(=O)N[C@@H](CCC(=O)O)C(=O)N[C@@H](CCC(=O)O)C(=O)N[C@@H](CCC(N)=O)C(=O)N[C@@H](CCCNC(=N)N)C(=O)N[C@@H](CCC(N)=O)C(=O)NC(C)(C)C(=O)N[C@@H](CCC(=O)O)C(=O)N[C@@H](Cc1ccccc1)C(=O)N[C@H](C(=O)N[C@@H](CCC(=O)O)C(=O)N[C@@H](Cc1c[nH]c2ccccc12)C(=O)N[C@@H](CC(C)C)C(=O)N[C@@H](CCCCN)C(=O)N[C@@H](C)C(=O)N[C@H](C)C(=O)NCC(=O)N[C@@H](Cc1c[nH]cn1)C(=O)N1CCC[C@H]1C(=O)N[C@@H](CO)C(=O)NC(C)(C)C(=O)N[C@@H](CCCCN)C(=O)N1CCC[C@H]1C(=O)N1CCC[C@H]1C(=O)N1CCC[C@H]1C(=O)N[C@@H](CCCCN)C(N)=O)[C@@H](C)CC)C(=O)O)C(=O)O

Assays:
Assay in all cases: cell-based or functional assay
[1] = target: human glucagon receptor (human) (UniProt P47871)
Sequence of human glucagon receptor (human) (P47871 26-477): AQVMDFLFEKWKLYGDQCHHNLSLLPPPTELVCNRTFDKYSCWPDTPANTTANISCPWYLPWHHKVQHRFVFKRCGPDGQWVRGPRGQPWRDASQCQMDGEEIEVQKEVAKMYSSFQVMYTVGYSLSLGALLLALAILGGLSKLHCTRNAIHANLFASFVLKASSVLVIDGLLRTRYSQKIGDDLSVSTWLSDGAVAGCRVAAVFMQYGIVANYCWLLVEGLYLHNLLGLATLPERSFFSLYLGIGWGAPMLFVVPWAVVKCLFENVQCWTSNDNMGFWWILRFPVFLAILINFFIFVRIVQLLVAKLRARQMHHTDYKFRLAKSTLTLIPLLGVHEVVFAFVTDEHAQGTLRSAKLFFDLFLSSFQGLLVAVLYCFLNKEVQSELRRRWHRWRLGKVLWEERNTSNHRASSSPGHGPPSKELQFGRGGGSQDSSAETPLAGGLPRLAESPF

[2] = target: human GLP-1 receptor (human) (UniProt P43220)
Sequence of human GLP-1 receptor (human) (P43220 24-463): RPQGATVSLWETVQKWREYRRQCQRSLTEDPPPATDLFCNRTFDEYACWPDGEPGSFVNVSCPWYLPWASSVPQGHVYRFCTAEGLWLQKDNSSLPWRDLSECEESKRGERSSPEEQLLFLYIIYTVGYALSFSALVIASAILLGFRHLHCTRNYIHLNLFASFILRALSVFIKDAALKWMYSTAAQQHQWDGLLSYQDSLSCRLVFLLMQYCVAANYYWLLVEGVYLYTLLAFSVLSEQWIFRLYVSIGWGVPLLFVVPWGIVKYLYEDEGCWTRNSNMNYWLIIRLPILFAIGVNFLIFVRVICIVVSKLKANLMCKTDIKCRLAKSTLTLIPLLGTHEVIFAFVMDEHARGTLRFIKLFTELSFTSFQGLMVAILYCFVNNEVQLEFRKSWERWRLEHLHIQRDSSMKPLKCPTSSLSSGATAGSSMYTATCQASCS

[3] = target: human glucagon receptor (human, UniProt P47871 26-477)
Sequence of human glucagon receptor (P47871 26-477): as the sequence (P47871 26-477) above

[4] = target: human GLP-1 receptor (human, UniProt P43220 24-463)
[5] = target: T1, human GIP receptor

| Molecule | EC50 hGlucagon R [pM] (cAMP formation) [1] | EC50 hGLP-1R [pM] (cAMP formation) [2] | EC50 hGlucagon R (cAMP formation) [3] | EC50 hGLP-1R (cAMP formation) [4] | EC50 hGIP R (cAMP formation) [5] |
| --- | --- | --- | --- | --- | --- |
| exendin-4 (peptide) | > 1e+07 pM | 0.4 pM |  |  |  |
| H[Aib]QGTFTSDLSKLK([γGlu-AEEA-gAAA-Palmitoyl])EEQRQ[Aib]EFIEWLKAGGHPS[Aib]KPPPK-NH2 (reading uncertain) [SEQ ID NO: 22] |  |  | 0.108 nM | 0.0021 nM | 0.006 nM |
| H[Aib]QGTFTSDLSKLK([γGlu-AEEA-gAAA-Palmitoyl])EEQRQ[Aib]EFIEWLKA[dA]GHPS[Aib]KPPPK-NH2 (reading uncertain) [SEQ ID NO: 23] |  |  | 0.0643 nM | 0.001 nM | 0.002 nM |
| B1 |  |  | 0.0218 nM | 0.004 nM | 0.0142 nM |
| H[Aib]QGTFTSDLSKLK([γGlu-AEEA-gAAA-Palmitoyl])EKQRQ[Aib]EFIEWLKA[dA]GHPS[Aib]KPPPK-NH2 (reading uncertain) [SEQ ID NO: 21] |  |  | 0.0699 nM | 0.0042 nM | 0.0246 nM |
| B2 |  |  | 0.0522 nM | 0.0019 nM | 0.0079 nM |
| H[Aib]QGTFTSDLSKLK([γGlu-AEEA-gAAA-Palmitoyl])EKQRQ[Aib]EFIEWLKAGGHPS[Aib]KPPPK-NH2 (reading uncertain) [SEQ ID NO: 20] |  |  | 0.044 nM | 0.0024 nM | 0.0127 nM |
